According to patent US20220242919A1 (LIMMATECH BIOLOGICS, published 2022):

Molecular target: T1, recombinant human VEGF-R1 (human, UniProt P17948 27-756, limits assumed)
T1 construct: Bought (Acro Biosystems), used as positive control analyte in SPR; also called rhVEGF-R1; VEGF receptor
Experiment: SPR, Biacore T200, 25 C, VEGF165 immobilized, multi cycle kinetics
Procedure: Surface plasmon resonance spectroscopy. The kinetic parameters of the VEGF-binders were measured using a Biacore T200 instrument at 25° C. The bait ligand (recombinant human VEGF₁₆₅, Acro Biosystems) was covalently immobilized on a sensor chip Cl surface at three different densities. The prey analyte (different DARPins, or as a positive control, recombinant human VEGF-R1 (Acro Biosystems)) was analysed using multi cycle kinetics in 10 mM HEPES pH 7.4, 150 mM NaCl, 3 mM EDTA, 0.05% Tween 20 at a flow rate of 50 μl/min.
For determination of the kinetic parameters, the concentration of the probe was measured using a BCA assay (Pierce) and the molecular weight was determined via the SPR signal measured at saturating conditions (Rₘₐₓ). See Table 4 for the MW determined via SPR. Each probe was measured twice on sensor surfaces with three different densities of covalently immobilized recombinant human VEGF₁₆₅. The KD of rhVEGF-R1 is in the double-digit nanomolar range. The unmodified DARPin has a single-digit picomolar affinity to human VEGF₁₆₅, as reported by Stahl et al. (Angiogenesis 16, 101-111 (2013)).

T1 sequence (P17948 27-756 limits assumed): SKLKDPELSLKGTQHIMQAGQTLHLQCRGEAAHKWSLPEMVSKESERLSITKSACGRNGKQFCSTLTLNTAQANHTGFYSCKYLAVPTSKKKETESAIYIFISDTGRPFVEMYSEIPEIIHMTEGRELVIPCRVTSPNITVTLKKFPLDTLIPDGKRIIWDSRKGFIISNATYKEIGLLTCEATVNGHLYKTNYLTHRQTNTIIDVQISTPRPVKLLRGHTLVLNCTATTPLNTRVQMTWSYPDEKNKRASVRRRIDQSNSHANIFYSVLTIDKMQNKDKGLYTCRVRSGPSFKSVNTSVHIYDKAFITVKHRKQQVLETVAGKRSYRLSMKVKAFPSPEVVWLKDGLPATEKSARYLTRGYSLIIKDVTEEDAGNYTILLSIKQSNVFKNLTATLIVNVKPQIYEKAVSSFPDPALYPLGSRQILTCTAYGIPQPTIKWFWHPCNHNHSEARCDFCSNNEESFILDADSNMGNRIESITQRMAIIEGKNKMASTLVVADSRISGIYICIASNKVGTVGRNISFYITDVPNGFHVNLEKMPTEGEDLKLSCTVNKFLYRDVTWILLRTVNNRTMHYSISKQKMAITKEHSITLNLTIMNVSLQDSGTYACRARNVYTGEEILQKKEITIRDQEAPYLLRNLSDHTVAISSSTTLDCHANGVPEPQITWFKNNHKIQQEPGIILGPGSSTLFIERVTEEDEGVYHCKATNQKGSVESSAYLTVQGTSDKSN

Kd: 0.069 nM
koff: 8.1e-05 s⁻¹
kon: 1.1e+06 M⁻¹ s⁻¹
B1: recombinant human VEGF165 (ligand, UniProt P15692-4 27-191, looked up)
chain: APMAEGGGQNHHEVVKFMDVYQRSYCHPIETLVDIFQEYPDEIEYIFKPSCVPLMRCGGCCNDEGLECVPTEESNITMQIMRIKPHQGQHIGEMSFLQHNKCECRPKKDRARQENPCGPCSERRKHLFVQDPQTCKCSCKNTDSRCKARQLELNERTCRCDKPRR
notes: Bought (Acro Biosystems); covalently immobilized on a Biacore sensor chip C1 surface at three densities; also called VEGF-A
